We go through two proteins from doi:10.1101/2023.05.26.542337 (bioRxiv, 2023).

This data set concerns the molecule itself. Nature of the data set: cryo-EM structure.

B1: Cas2/3 (fusion of Cas2 to the Cas3 nuclease/helicase, type I-F, Pseudomonas aeruginosa PA14) (enzyme)
chain: MNILLVSQCEKRALSETRRILDQFAERRGERTWQTPITQAGLDTLRRLLKKSARRNTAVACHWIRGRDHSELLWIVGDASRFNAQGAVPTNRTCRDILRKEDENDWHSAEDIRLLTVMAALFHDIGKASQAFQAKLRNRGKPMADAYRHEWVSLRLFEAFVGPGSSDEDWLRRLADKRETGDAWLSQLARDDRQSAPPGPFQKSRLPPLAQAVGWLIVSHHRLPNGDHRGSASLARLPAPIQSQWCGARDADAKEKAACWQFPHGLPFASAHWRARTALCAQSMLERPGLLARGPALLHDSYVMHVSRLILMLADHHYSSLPADSRLGDPNFPLHANTDRDSGKLKQRLDEHLLGVALHSRKLAGTLPRLERQLPRLARHKGFTRRVEQPRFRWQDKAYDCAMACREQAMEHGFFGLNLASTGCGKTLANGRILYALADPQRGARFSIALGLRSLTLQTGQAYRERLGLGDDDLAILVGGSAARELFEKQQERLERSGSESAQELLAENSHVHFAGTLEDGPLREWLGRNSAGNRLLQAPILACTIDHLMPASESLRGGHQIAPLLRLMTSDLVLDEVDDFDIDDLPALSRLVHWAGLFGSRVLLSSATLPPALVQGLFEAYRSGREIFQRHRGAPGRATEIRCAWFDEFSSQSSAHGAVTSFSEAHATFVAQRLAKLEQLPPRRQAQLCTVHAAGEARPALCRELAGQMNTWMADLHRCHHTEHQGRRISFGLLRLANIEPLIELAQAILAQGAPEGLHVHLCVYHSRHPLLVRSAIERQLDELLKRSDDDAAALFARPTLAKALQASTERDHLFVVLASPVAEVGRDHDYDWAIVEPSSMRSIIQLAGRIRRHRSGFSGEANLYLLSRNIRSLEGQNPAFQRPGFETPDFPLDSHDLHDLLDPALLARIDASPRIVEPFPLFPRSRLVDLEHRRLRALMLADDPPSSLLGVPLWWQTPASLSGALQTSQPFRAGAKERCYALLPDEDDEERLHFSRYEEGTWSNQDNLLRNLDLTYGPRIQTWGTVNYREELVAMAGREDLDLRQCAMRYGEVRLRENTQGWSYHPYLGFKKYN
With B1, the binding result is listed as “binds”.

B2: Cas1 (type I-F, Pseudomonas aeruginosa PA14) (enzyme)
chain: MDDISPSELKTILHSKRANLYYLQHCRVLVNGGRVEYVTDEGRHSHYWNIPIANTTSLLLGTGTSITQAAMRELARAGVLVGFCGGGGTPLFSANEVDVEVSWLTPQSEYRPTEYLQRWVGFWFDEEKRLVAARHFQRARLERIRHSWLEDRVLRDAGFAVDATALAVAVEDSARALEQAPNHEHLLTEEARLSKRLFKLAAQATRYGEFVRAKRGSGGDPANRFLDHGNYLAYGLAATATWVLGIPHGLAVLHGKTRRGGLVFDVADLIKDSLILPQAFLSAMRGDEEQDFRQACLDNLSRAQALDFMIDTLKDVAQRSTVSA
As to B2, the binding result is given as “binds”.
